This passage reports Kd results from PMC12607630.

This assay has as its target 6×His-SUMO-FtsZ 370-383 (Escherichia coli) (UniProt P0A9A6). Kind of assay: BLI; 6×His-SUMO fusions of FtsZ or its parts, or SUMO alone (0.5 µM), held on Ni-NTA biosensors, untagged ZapC in solution; Octet-Red96, 30°C, 1× Pol buffer (50 mM HEPES-NaOH pH 6.8, 50 mM KCl, 10 mM MgCl2); apparent Kd from the signal at the end of association against concentration, one-site fit; three repeats with mean (X) and SD. In general terms: BLI is a label-free optical method that tracks binding on a fibre tip over time.

Values joined by “and” are separate entries in the source; they are usually repeats but may differ in a detail not shown here. Equal values may be shown once.

Turning to “ZapC (untagged) (from UniProt P75862 1-180) (natural protein)”, the Kd was 10.2 µM and 8.06 µM and 9.89 µM.
